Common to all, as to assay: fluorescence polarisation
(Fluorescence polarisation rises when a labelled molecule tumbles more slowly, as on binding a larger partner.)

The target in assay [1] is T1, DegS N197A (E. coli, UniProt P0AEE3 27-355, N197A).
T1 sequence (looked up): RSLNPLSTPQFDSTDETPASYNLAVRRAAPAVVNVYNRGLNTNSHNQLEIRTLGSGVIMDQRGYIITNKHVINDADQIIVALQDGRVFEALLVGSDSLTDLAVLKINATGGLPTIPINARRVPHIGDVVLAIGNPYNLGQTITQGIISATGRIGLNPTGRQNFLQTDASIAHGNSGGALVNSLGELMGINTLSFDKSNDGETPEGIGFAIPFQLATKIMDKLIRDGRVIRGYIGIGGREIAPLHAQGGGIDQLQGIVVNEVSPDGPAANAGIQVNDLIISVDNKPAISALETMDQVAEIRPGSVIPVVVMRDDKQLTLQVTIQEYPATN

Assay [2] has as its target T2, DegS F220A (E. coli, UniProt P0AEE3 27-355, F220A).
T2 sequence (looked up): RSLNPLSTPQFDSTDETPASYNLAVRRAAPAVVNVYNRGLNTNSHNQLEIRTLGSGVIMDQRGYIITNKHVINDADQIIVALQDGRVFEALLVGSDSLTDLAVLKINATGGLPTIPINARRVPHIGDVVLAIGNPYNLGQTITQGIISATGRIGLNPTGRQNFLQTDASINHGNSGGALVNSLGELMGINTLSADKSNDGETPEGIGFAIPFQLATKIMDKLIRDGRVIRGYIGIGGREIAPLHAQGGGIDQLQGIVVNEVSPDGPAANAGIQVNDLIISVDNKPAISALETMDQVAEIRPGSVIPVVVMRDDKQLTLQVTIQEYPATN

Assay [3] has as its target T3, DegS N197A/H198P (E. coli, UniProt P0AEE3 27-355, N197A | H198P).
T3 sequence (looked up): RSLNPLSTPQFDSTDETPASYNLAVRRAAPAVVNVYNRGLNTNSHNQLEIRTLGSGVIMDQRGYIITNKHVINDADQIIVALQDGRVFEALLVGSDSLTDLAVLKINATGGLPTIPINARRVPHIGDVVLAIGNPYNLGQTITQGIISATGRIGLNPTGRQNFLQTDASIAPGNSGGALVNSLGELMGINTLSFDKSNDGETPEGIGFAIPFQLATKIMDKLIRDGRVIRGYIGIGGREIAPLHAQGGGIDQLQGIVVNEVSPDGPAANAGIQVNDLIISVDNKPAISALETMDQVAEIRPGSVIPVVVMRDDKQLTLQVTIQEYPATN

Assay [4] concerns the target T4, DegS L164A (E. coli, UniProt P0AEE3 27-355, L164A).
T4 sequence (looked up): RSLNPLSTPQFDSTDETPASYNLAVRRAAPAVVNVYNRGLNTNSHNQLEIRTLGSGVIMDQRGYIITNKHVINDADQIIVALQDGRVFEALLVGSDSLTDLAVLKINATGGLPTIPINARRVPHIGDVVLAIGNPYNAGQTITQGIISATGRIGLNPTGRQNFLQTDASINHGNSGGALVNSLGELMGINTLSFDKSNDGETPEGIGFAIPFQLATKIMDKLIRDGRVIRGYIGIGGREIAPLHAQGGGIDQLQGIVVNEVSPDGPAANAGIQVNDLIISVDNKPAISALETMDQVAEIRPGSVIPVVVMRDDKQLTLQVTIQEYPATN

Assay [5] concerns the target T5, DegS T167V (E. coli, UniProt P0AEE3 27-355, T167V).
T5 sequence (looked up): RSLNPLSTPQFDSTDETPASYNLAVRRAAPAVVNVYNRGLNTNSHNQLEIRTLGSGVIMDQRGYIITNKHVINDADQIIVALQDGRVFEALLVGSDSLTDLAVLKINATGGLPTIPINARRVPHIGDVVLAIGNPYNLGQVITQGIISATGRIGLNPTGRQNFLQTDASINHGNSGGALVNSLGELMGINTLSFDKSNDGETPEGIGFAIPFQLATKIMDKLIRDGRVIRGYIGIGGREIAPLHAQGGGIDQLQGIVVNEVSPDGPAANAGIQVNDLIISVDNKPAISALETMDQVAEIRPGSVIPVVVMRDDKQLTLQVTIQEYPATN

For assay [6], the target named is T6, DegS L164A/H198P (E. coli, UniProt P0AEE3 27-355, L164A | H198P).
T6 sequence (looked up): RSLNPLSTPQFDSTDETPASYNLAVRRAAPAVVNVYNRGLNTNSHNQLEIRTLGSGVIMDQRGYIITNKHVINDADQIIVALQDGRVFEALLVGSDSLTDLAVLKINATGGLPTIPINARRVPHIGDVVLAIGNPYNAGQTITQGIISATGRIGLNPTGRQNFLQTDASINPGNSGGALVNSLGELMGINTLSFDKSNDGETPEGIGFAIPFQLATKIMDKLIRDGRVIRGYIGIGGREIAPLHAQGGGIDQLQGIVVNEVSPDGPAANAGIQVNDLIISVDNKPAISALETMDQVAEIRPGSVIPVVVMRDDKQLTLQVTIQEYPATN

Where no end group is shown, it is not given here. fluorescein = fluorescein, a fluorescent label on the peptide N-terminus

B1: fluorescent OMP peptide fluorescein-DNRDGNVYYF (peptide)
peptide: fluorescein-DNRDGNVYYF
Regarding B1, the Kd in assay [1] was determined as 1400 ± 100 nM; in assay [2], 2100 ± 100 nM; in assay [3], 700 ± 100 nM; in assay [4], 2800 ± 600 nM; in assay [5], 1800 ± 100 nM; in assay [6] it was 2500 ± 500 nM.

As usually defined, the Kd is a measure of binding affinity in units of concentration. Read a low Kd as tighter binding.

Source of the values: paper PMC4351158 (Structure (London, England : 1993), 2015).
